The target in this assay is T1, IL-1 receptor type I (human (endogenous in A-498), UniProt P14778 18-569).
T1 construct: In the functional row on Caki-2 cells the endogenous receptor of those cells is meant; it was not detected there directly; also called IL-1 receptor type I (80 kDa); source: endogenous, on A-498 cells
T1 sequence (looked up): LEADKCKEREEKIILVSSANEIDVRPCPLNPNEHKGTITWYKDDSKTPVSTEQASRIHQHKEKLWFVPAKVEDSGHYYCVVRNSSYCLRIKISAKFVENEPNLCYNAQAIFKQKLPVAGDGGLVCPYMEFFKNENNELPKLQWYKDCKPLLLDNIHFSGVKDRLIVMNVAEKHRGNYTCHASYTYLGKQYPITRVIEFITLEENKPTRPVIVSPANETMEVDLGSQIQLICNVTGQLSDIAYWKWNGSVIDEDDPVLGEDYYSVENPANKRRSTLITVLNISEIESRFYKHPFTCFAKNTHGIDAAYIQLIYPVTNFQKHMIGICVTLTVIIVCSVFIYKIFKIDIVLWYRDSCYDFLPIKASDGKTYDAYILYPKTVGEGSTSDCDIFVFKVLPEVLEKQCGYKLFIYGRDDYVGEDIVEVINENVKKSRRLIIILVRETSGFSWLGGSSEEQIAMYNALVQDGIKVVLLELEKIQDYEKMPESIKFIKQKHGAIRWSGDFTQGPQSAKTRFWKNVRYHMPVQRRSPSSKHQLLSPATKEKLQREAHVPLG
In words: radioligand binding; [125I]IL-1 alpha at increasing concentrations (direct) or at 80 pM with increasing unlabelled IL-1 alpha (competition) on subconfluent A-498 cells in 24-well plates; cells washed with binding medium pH 3.0 for 30 s beforehand; binding medium with 20 mM HEPES pH 7.0; 3 h at 4 C; Scatchard analysis, two classes of binding sites. The following applies: one partner purified.

B1: [125I]IL-1 alpha (ligand, UniProt P01583 113-271, looked up)
chain: SAPFSFLSNVKYNFMRIIKYEFILNDALNQSIIRANDQYLTAAALHNLDEAVKFDMGAYKSSKDDAKITVILRISKTQLYVTAQDEDQPVLLKEMPEIPKTITGSETNLLFFWETHGTKNYFTSVAHPNLFIATKQDYWVCLAGGPPSITDFQILENQA
modifications: 125I label (radioiodinated)
notes: interleukin 1 alpha, the 17 kDa form as printed; also called radiolabelled interleukin 1 alpha; source: bought: Amersham-Buchler
Consider B1, for which the “KD of the high-affinity sites” value was 0.045 nM and the “KD of the low-affinity sites” value worked out at 1.3 nM.

The values above are taken from paper PMC2033760, “Interleukin 1 modulates growth of human renal carcinoma cells in vitro” (British Journal of Cancer, 1995).
